From US20110172391A1 (published 2011) come the findings set out here.

The target of one assay is precursor protein MINC (Synechocystis sp. PCC6803). The experiment in a line: cell-based or functional assay.
For another assay, the target named is N-precursor protein MINH (Synechocystis sp. PCC6803). Kind of assay: cell-based or functional assay.

GVFVHN [6-aa Ic peptide]: the “N-cleavage rate against the longer Ic peptide (with 10 mM or 100 mM DTT)” value in the assay with precursor protein MINC was approximately 2 fold slower.

As for GVFVHASG [8-aa Ic peptide], in the assay with precursor protein MINC, the “fold increase of the N-cleavage rate constant with 10 mM DTT against the Ic peptide alone” value was approximately 2 fold and the “fold increase of the N-cleavage rate constant with 100 mM DTT against the Ic peptide alone” value is approximately 10 fold.

For GVFVHNSADYKDDDDKSGCLAGDTLITLAS [synthetic peptide (ICF)], the “rate constant (kobs) of the trans-splicing reaction, pseudo-first order, 10-fold molar excess of ICF” value with N-precursor protein MINH turned out to be 6.9e-05 s⁻¹.
